Measured values published in publication PMC10986471 (Microbiology Spectrum, 2024).

Legend:
Assay in all cases: ELISA
Settings in all cases: both partners purified
[1] = molecular target: RBD of the Alpha variant (B.1.1.7 lineage) (SARS-CoV-2 Alpha (B.1.1.7), N501Y)
[2] = molecular target: RBD of the Beta variant (B.1.351 lineage) (SARS-CoV-2 Beta (B.1.351), K417N | E484K | N501Y)
[3] = molecular target: RBD of the Gamma variant (P.1 lineage) (SARS-CoV-2 Gamma (P.1), K417T | E484K | N501Y)
[4] = molecular target: RBD^B.1 (receptor-binding domain of Spike^B.1) (SARS-CoV-2 B.1 (RBD as Wuhan-Hu-1), UniProt P0DTC2)
[5] = molecular target: RBD of the Delta variant (B.1.617.2 lineage) (SARS-CoV-2 Delta (B.1.617.2), L452R | T478K)

B1: CSW1-1805 (antibody, V domains shown)
VH: EVQLQQSGPELVKPGASLRISCRTSEYTFTENTMYWVKQSHGKSLEWIGGINPNNGDTIYNQQFKGKATLTVDKSSSTAYMELRSLTSEDSAVYYCARDSPVVPGDYWGQGTTLTVSS
VL: DIVMTQSPSSLPVSVGEKVTMRCKSSQSLLYSSNQKNYLAWYQQKSGQSPKLMIYWASTRECGVPDRFTGSGSGTDFTLTISNVKAEDLAVYYCQQYYRYPLTFGVGTKLELK
notes: copies: 2 + 2
Question: With B1 as the binder, how does the Kd [1] read?
Answer: Its Kd is 0.452 nM.

Question: What about the Kd [2] of the same binder?
Answer: The Kd was 0.482 nM.

Question: What about the Kd [3] of the same binder?
Answer: The Kd was 0.494 nM.

Question: What about the Kd [4] of the same binder?
Answer: The Kd was 0.453 nM.

Question: And the Kd [5]?
Answer: The Kd was 0.262 nM.

B2: CSW2-1353 (antibody, V domains shown)
VH: EVQLVESGGGLVQPKGSLKLSCAASGFNFNTYAMNWVRQAPGKGLEWVARIRSKSENYVIYYADSVKDRFTISRDDSQNMLYLQMNNLKTEDTAMYYCVMSYYGNYWFAYWGQGTLVTVSA
VL: DVVVTQTPLSLPVSLGDQASISCRSSQSLVHNNGNTYLHWYLQKPGQSPKLLIYKVSNRFSGVPDRFSGSGSGTDFTLKISRVEAEDLGVYFCSQSTHIPWTFGGGTKLEIK
notes: copies: 2 + 2
Question: What does the source list for B2?
Answer: Kd [1]: 0.152 nM; Kd [4]: 0.118 nM; Kd [5]: 0.114 nM
